We go through nine sequences from the supplement of paper PMC5998384.

Series [1] deals with HeLa Kyoto. Put plainly: melting temperature (median over replicates), in situ; higher = more thermally stable.
Series [2] deals with HeLa Kyoto. Briefly: solubility change mitosis vs G1/S (difference of NP-40 vs SDS log2 ratios) (log2 ratio difference); higher = more soluble in mitosis.
Series [3] concerns HeLa Kyoto. Briefly: solubility in G1/S (NP-40 vs SDS abundance) (log2 ratio); higher = more soluble. As to conditions: cell cycle stage: G1/S.
Series [4] has as its system HeLa Kyoto. Put plainly: thermal stability score vs G1/S (z-score of summed log2 fold changes over temperatures); higher = more thermally stable than in G1/S.
[5] abbreviates: cell cycle stage: early G1 (4.5 h after nocodazole release).
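For melting temperature (median over replicates), in situ in this document: HeLa Kyoto cells synchronized by double thymidine or nocodazole block, proteins quantified by TMT10plex mass spectrometry, three independent biological replicates.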
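For solubility change mitosis vs G1/S (difference of NP-40 vs SDS log2 ratios) in this document: synchronized HeLa Kyoto cells (double thymidine block for G1/S, nocodazole release for mitosis), protein amounts in NP-40 versus SDS lysates quantified by mass spectrometry, three biological replicates.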
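For solubility in G1/S (NP-40 vs SDS abundance) in this document: HeLa Kyoto cells arrested at G1/S by double thymidine block, proteins quantified by TMT10plex mass spectrometry in mild NP-40 versus SDS extracts, three biological replicates.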
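For thermal stability score vs G1/S (z-score of summed log2 fold changes over temperatures) in this document: synchronized HeLa Kyoto cells, proteins quantified by TMT10plex mass spectrometry, three biological replicates, mitosis taken 0.5 h after nocodazole release, G1/S directly after double thymidine block.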

As for “MQNSHMDEYRNSSNGSTGNSSEVVVEHPTDFSTEIMNVTEMEQSPDDSPNVNASTEETEMASAVDLPVTLTETEANFPPEYEKFWKTVENNPQDFTGWVYLLQYVEQENHLMAARKAFDRFFIHYPYCYGYWKKYADLEKRHDNIKPSDEVYRRGLQAIPLSVDLWIHYINFLKETLDPGDPETNNTIRGTFEHAVLAAGTDFRSDRLWEMYINWENEQGNLREVTAIYDRILGIPTQLYSHHFQRFKEHVQNNLPRDLLTGEQFIQLRRELASVNGHSGDDGPPGDDLPSGIEDITDPAKLITEIENMRHRIIEIHQEMFNYNEHEVSKRWTFEEGIKRPYFHVKPLEKAQLKNWKEYLEFEIENGTHERVVVLFERCVISCALYEEFWIKYAKYMENHSIEGVRHVFSRACTIHLPKKPMVHMLWAAFEEQQGNINEARNILKTFEECVLGLAMVRLRRVSLERRHGNLEEAEHLLQDAIKNAKSNNESSFYAVKLARHLFKIQKNLPKSRKVLLEAIERDKENTKLYLNLLEMEYSGDLKQNEENILNCFDKAVHGSLPIKMRITFSQRKVEFLEDFGSDVNKLLNAYDEHQTLLKEQDSLKRKAENGSEEPEEKKAHTEDTTSSSTQMIDGDLQANQAVYNYSAWYQYNYQNPWNYGQYYPPPPT [PRPF39]”, the melting temperature worked out at 47.2 °C in the series on HeLa Kyoto [1] (cell cycle stage: G1/S) and 50.4 °C in the series on HeLa Kyoto [1] (cell cycle stage: mitosis). Moreover, the “solubility change mitosis (log2)” value with HeLa Kyoto [2] was -0.157. Further, in the series on HeLa Kyoto [3], the “solubility in G1/S (log2)” value was found to be 0.0352. Besides, the thermal stability score is 1.54 in the series with HeLa Kyoto [4] (setting [5]) and 2.13 in the series on HeLa Kyoto [4] (cell cycle stage: mitosis).

For the sequence “MQQDGLGVGTRNGSGKGRSVHPSWPWCAPRPLRYFGRDARARRAQTAAMALLAGGLSRGLGSHPAAAGRDAVVFVWLLLSTWCTAPARAIQVTVSNPYHVVILFQPVTLPCTYQMTSTPTQPIVIWKYKSFCRDRIADAFSPASVDNQLNAQLAAGNPGYNPYVECQDSVRTVRVVATKQGNAVTLGDYYQGRRITITGNADLTFDQTAWGDSGVYYCSVVSAQDLQGNNEAYAELIVLGRTSGVAELLPGFQAGPIEDWLFVVVVCLAAFLIFLLLGICWCQCCPHTCCCYVRCPCCPDKCCCPEALYAAGKAATSGVPSIYAPSTYAHLSPAKTPPPPAMIPMGPAYNGYPGGYPGDVDRSSSAGGQGSYVPLLRDTDSSVASEVRSGYRIQASQQDDSMRVLYYMEKELANFDPSRPGPPSGRVERAMSEVTSLHEDDWRSRPSRGPALTPIRDEEWGGHSPRSPRGWDQEPAREQAGGGWRARRPRARSVDALDDLTPPSTAESGSRSPTSNGGRSRAYMPPRSRSRDDLYDQDDSRDFPRSRDPHYDDFRSRERPPADPRSHHHRTRDPRDNGSRSGDLPYDGRLLEEAVRKKGSEERRRPHKEEEEEAYYPPAPPPYSETDSQASRERRLKKNLALSRESLVV”, the melting temperature in the series on HeLa Kyoto [1] (cell cycle stage: G1/S) came to 53.8 °C; in the series on HeLa Kyoto [1] (cell cycle stage: mitosis) it was 54.6 °C. In addition, the “solubility change mitosis (log2)” value with HeLa Kyoto [2] was 0.133. For the same sequence, the “solubility in G1/S (log2)” value in the series on HeLa Kyoto [3] was -0.186. The thermal stability score with HeLa Kyoto [4] (setting [5]) is -3.76; in the series on HeLa Kyoto [4] (cell cycle stage: mitosis), -1.62.

Turning to “MQRASRLKRELHMLATEPPPGITCWQDKDQMDDLRAQILGGANTPYEKGVFKLEVIIPERYPFEPPQIRFLTPIYHPNIDSAGRICLDVLKLPPKGAWRPSLNIATVLTSIQLLMSEPNPDDPLMADISSEFKYNKPAFLKNARQWTEKHARQKQKADEEEMLDNLPEAGDSRVHNSTQKRKASQLVGIEKKFHPDV [UBE2T]”, the results for the melting temperature with HeLa Kyoto [1] (cell cycle stage: G1/S) and in the series on HeLa Kyoto [1] (cell cycle stage: mitosis) were 49.2 °C and 49.9 °C, respectively. The “solubility change mitosis (log2)” value in the series with HeLa Kyoto [2] turned out to be 0.118. Besides, the “solubility in G1/S (log2)” value in the series with HeLa Kyoto [3] turned out to be 0.66. Further, the results for the thermal stability score in the series on HeLa Kyoto [4] (setting [5]) and with HeLa Kyoto [4] (cell cycle stage: mitosis) were -0.273 and -0.0505, respectively.

In turn, “MQTPVNIPVPVLRLPRGPDGFSRGFAPDGRRAPLRPEVPEIQECPIAQESLESQEQRARAALRERYLRSLLAMVGHQVSFTLHEGVRVAAHFGATDLDVANFYVSQLQTPIGVQAEALLRCSDIISYTFKP [GEMIN7]” displayed a melting temperature with HeLa Kyoto [1] (cell cycle stage: G1/S) of 53 °C. Also, in the series on HeLa Kyoto [2], the “solubility change mitosis (log2)” value was -0.0302. In addition, the “solubility in G1/S (log2)” value in the series on HeLa Kyoto [3] was -0.401. The results for the thermal stability score in the series with HeLa Kyoto [4] (setting [5]) and in the series on HeLa Kyoto [4] (cell cycle stage: mitosis) were -0.755 and -0.344, respectively.

On to “MRERIWAPPLLLLLPLLLPPPLWGGPPDSPRRELELEPGPLQPFDLLYASGAAAYYSGDYERAVRDLEAALRSHRRLREIRTRCARHCAARHPLPPPPPGEGPGAELPLFRSLLGRARCYRSCETQRLGGPASRHRVSEDVRSDFQRRVPYNYLQRAYIKLNQLEKAVEAAHTFFVANPEHMEMQQNIENYRATAGVEALQLVDREAKPHMESYNAGVKHYEADDFEMAIRHFEQALREYFVEDTECRTLCEGPQRFEEYEYLGYKAGLYEAIADHYMQVLVCQHECVRELATRPGRLSPIENFLPLHYDYLQFAYYRVGEYVKALECAKAYLLCHPDDEDVLDNVDYYESLLDDSIDPASIEAREDLTMFVKRHKLESELIKSAAEGLGFSYTEPNYWIRYGGRQDENRVPSGVNVEGAEVHGFSMGKKLSPKIDRDLREGGPLLYENITFVYNSEQLNGTQRVLLDNVLSEEQCRELHSVASGIMLVGDGYRGKTSPHTPNEKFEGATVLKALKSGYEGRVPLKSARLFYDISEKARRIVESYFMLNSTLYFSYTHMVCRTALSGQQDRRNDLSHPIHADNCLLDPEANECWKEPPAYTFRDYSALLYMNDDFEGGEFIFTEMDAKTVTASIKPKCGRMISFSSGGENPHGVKAVTKGKRCAVALWFTLDPLYRELERIQADEVIAILDQEQQGKHELNINPKDEL [P3H2]”, for which the melting temperature in the series on HeLa Kyoto [1] (cell cycle stage: G1/S) was 53.7 °C; in the series on HeLa Kyoto [1] (cell cycle stage: mitosis), 53.9 °C. For the same sequence, in the series with HeLa Kyoto [2], the “solubility change mitosis (log2)” value is -0.0732. For the same sequence, in the series with HeLa Kyoto [3], the “solubility in G1/S (log2)” value was -0.176. For the same sequence, the thermal stability score with HeLa Kyoto [4] (setting [5]) came to 4.77; with HeLa Kyoto [4] (cell cycle stage: mitosis), 5.82.

On to “MRFLAATFLLLALSTAAQAEPVQFKDCGSVDGVIKEVNVSPCPTQPCQLSKGQSYSVNVTFTSNIQSKSSKAVVHGILMGVPVPFPIPEPDGCKSGINCPIQKDKTYSYLNKLPVKSEYPSIKLVVEWQLQDDKNQSLFCWEIPVQIVSHL [NPC2]”, for which the melting temperature in the series with HeLa Kyoto [1] (cell cycle stage: G1/S) was found to be 58.9 °C; in the series on HeLa Kyoto [1] (cell cycle stage: mitosis), 53.4 °C. In addition, in the series with HeLa Kyoto [2], the “solubility change mitosis (log2)” value came out at 0.0342. In addition, the “solubility in G1/S (log2)” value in the series on HeLa Kyoto [3] worked out at 0.123. Moreover, the values for the thermal stability score with HeLa Kyoto [4] (setting [5]) and in the series on HeLa Kyoto [4] (cell cycle stage: mitosis) were -3.22 and -2.19, respectively.

As to “MRGAMELEPELLLQEARENVEAAQSYRRELGHRLEGLREARRQIKESASQTRDVLKQHFNDLKGTLGKLLDERLVTLLQEVDTIEQETIKPLDDCQKLIEHGVNTAEDLVREGEIAMLGGVGEENEKLWSFTKKASHIQLDSLPEVPLLVDVPCLSAQLDDSILNIVKDHIFKHGTVASRPPVQIEELIEKPGGIIVRWCKVDDDFTAQDYRLQFRKCTSNHFEDVYVGSETEFIVLHIDPNVDYQFRVCARGDGRQEWSPWSVPQIGHSTLVPHEWTAGFEGYSLSSRRNIALRNDSESSGVLYSRAPTYFCGQTLTFRVETVGQPDRRDSIGVCAEKQDGYDSLQRDQAVCISTNGAVFVNGKEMTNQLPAVTSGSTVTFDIEAVTLGTTSNNEGGHFKLRVTISSNNREVVFDWLLDQSCGSLYFGCSFFYPGWKVLVF [CRLF3]”, the results for the melting temperature in the series on HeLa Kyoto [1] (cell cycle stage: G1/S) and with HeLa Kyoto [1] (cell cycle stage: mitosis) were 50 °C and 49.7 °C, respectively. Also, in the series with HeLa Kyoto [2], the “solubility change mitosis (log2)” value was -0.13. Besides, the “solubility in G1/S (log2)” value in the series on HeLa Kyoto [3] was -0.117. The thermal stability score with HeLa Kyoto [4] (setting [5]) was -0.0259; with HeLa Kyoto [4] (cell cycle stage: mitosis), -0.0234.

For “MRGVWPPPVSALLSALGMSTYKRATLDEEDLVDSLSEGDAYPNGLQVNFHSPRSGQRCWAARTQVEKRLVVLVVLLAAGLVACLAALGIQYQTRSPSVCLSEACVSVTSSILSSMDPTVDPCHDFFSYACGGWIKANPVPDGHSRWGTFSNLWEHNQAIIKHLLENSTASVSEAERKAQVYYRACMNETRIEELRAKPLMELIERLGGWNITGPWAKDNFQDTLQVVTAHYRTSPFFSVYVSADSKNSNSNVIQVDQSGLGLPSRDYYLNKTENEKVLTGYLNYMVQLGKLLGGGDEEAIRPQMQQILDFETALANITIPQEKRRDEELIYHKVTAAELQTLAPAINWLPFLNTIFYPVEINESEPIVVYDKEYLEQISTLINTTDRCLLNNYMIWNLVRKTSSFLDQRFQDADEKFMEVMYGTKKTCLPRWKFCVSDTENNLGFALGPMFVKATFAEDSKSIATEIILEIKKAFEESLSTLKWMDEETRKSAKEKADAIYNMIGYPNFIMDPKELDKVFNDYTAVPDLYFENAMRFFNFSWRVTADQLRKAPNRDQWSMTPPMVNAYYSPTKNEIVFPAGILQAPFYTRSSPKALNFGGIGVVVGHELTHAFDDQGREYDKDGNLRPWWKNSSVEAFKRQTECMVEQYSNYSVNGEPVNGRHTLGENIADNGGLKAAYRAYQNWVKKNGAEHSLPTLGLTNNQLFFLGFAQVWCSVRTPESSHEGLITDPHSPSRFRVIGSLSNSKEFSEHFRCPPGSPMNPPHKCEVW [ECE1]”, the melting temperature with HeLa Kyoto [1] (cell cycle stage: G1/S) stood at 56.1 °C; in the series on HeLa Kyoto [1] (cell cycle stage: mitosis), 55.2 °C. Besides, in the series with HeLa Kyoto [2], the “solubility change mitosis (log2)” value was -0.00992. For the same sequence, the “solubility in G1/S (log2)” value in the series on HeLa Kyoto [3] was 0.243. In addition, the thermal stability score with HeLa Kyoto [4] (setting [5]) is -1.05; in the series with HeLa Kyoto [4] (cell cycle stage: mitosis), -0.159.

Consider “MRHLPYFCRGQVVRGFGRGSKQLGIPTANFPEQVVDNLPADISTGIYYGWASVGSGDVHKMVVSIGWNPYYKNTKKSMETHIMHTFKEDFYGEILNVAIVGYLRPEKNFDSLESLISAIQGDIEEAKKRLELPEHLKIKEDNFFQVSKSKIMNGH [RFK]”, for which the melting temperature is 52.7 °C in the series with HeLa Kyoto [1] (cell cycle stage: G1/S) and 54.1 °C in the series with HeLa Kyoto [1] (cell cycle stage: mitosis). Further, the “solubility change mitosis (log2)” value in the series with HeLa Kyoto [2] is -0.114. Further, in the series on HeLa Kyoto [3], the “solubility in G1/S (log2)” value is 0.518. In addition, the values for the thermal stability score with HeLa Kyoto [4] (setting [5]) and with HeLa Kyoto [4] (cell cycle stage: mitosis) were 0.0986 and -0.44, respectively.
